# Reference: PMC3461317 (Biochemistry, 2010)
# Target: the molecule itself
# Assay: SEC
# Conditions: not given
row,Molecule,stoichiometry N
1,"FlK-E50Q (enzyme, Streptomyces cattleya) MKDGMRVGERFTHDFVVPPHKTVRHLYPESPEFAEFPEVFATGFMVGLMQWACVRAMAPYLEPGEGSLGTAICVTHTAATPPGLTVTVTAELRSVEGRRLSWRVSAHDGVDEIGSGTHERAVIHLEKFNAKVRQKTPAG",2

# Target: the molecule itself
# Assay: crystal structure
# Conditions: not given
row,Molecule,binding result
1,"FlK-F36A (enzyme, Streptomyces cattleya) MKDGMRVGERFTHDFVVPPHKTVRHLYPESPEFAEAPEVFATGFMVGLMEWACVRAMAPYLEPGEGSLGTAICVTHTAATPPGLTVTVTAELRSVEGRRLSWRVSAHDGVDEIGSGTHERAVIHLEKFNAKVRQKTPAG",binds

# Tested on: CC(C)(COP(=O)(O)OP(=O)(O)OC[C@H]1O[C@@H](n2cnc3c(N)ncnc32)[C@H](O)[C@@H]1OP(=O)(O)O)[C@@H](O)C(=O)NCCC(=O)NCCSC(=O)CF
# Assay: purified protein
# Type: biochemical, Streptantibioticus cattleyicolor
# Conditions: 100 mM Tris-HCl pH 7.6, 25 °C, 0.5 mM DTNB
Molecule,Km,kcat [s⁻¹],kcat/Km [M⁻¹ s⁻¹]
FlK (Streptantibioticus cattleyicolor),8 ± 1 µM,390 ± 20,5e+07 ± 1e+07
FlK (Streptantibioticus cattleyicolor; F33A),(1.5 ± 0.4) × 10^3 μM,27 ± 4,18000 ± 5000
FlK (Streptantibioticus cattleyicolor; F36A),(7.1 ± 0.8) × 10^2 μM,270 ± 20,370000 ± 50000
FlK (Streptantibioticus cattleyicolor; H76A),(2.0 ± 0.7) × 10^1 μM,0.003 ± 0.0003,150 ± 50
FlK (Streptantibioticus cattleyicolor; L26A),(1.2 ± 0.2) × 10^2 μM,6.7 ± 0.1,57000 ± 8000
FlK (Streptantibioticus cattleyicolor; T42A),(1.1 ± 0.4) × 10^2 μM,0.45 ± 0.09,4000 ± 2000
FlK (Streptantibioticus cattleyicolor; T42C),(3.6 ± 1) × 10^2 μM,11 ± 2,30000 ± 10000
FlK (Streptantibioticus cattleyicolor; T42S),(6 ± 2) × 10^1 μM,19 ± 4,300000 ± 100000
FlK (Streptantibioticus cattleyicolor; V23A),(3.0 ± 1.5) × 10^2 μM,150 ± 30,500000 ± 300000

# Tested on: CC(=O)SCCNC(=O)CCNC(=O)[C@H](O)C(C)(C)COP(=O)(O)OP(=O)(O)OC[C@H]1O[C@@H](n2cnc3c(N)ncnc32)[C@H](O)[C@@H]1OP(=O)(O)O
# Assay: purified protein
# Type: biochemical, Streptantibioticus cattleyicolor
# Conditions: 100 mM Tris-HCl pH 7.6, 25 °C, 0.5 mM DTNB
Molecule,Km,kcat [s⁻¹],kcat/Km [M⁻¹ s⁻¹]
FlK (Streptantibioticus cattleyicolor),(2.1 ± 0.5) × 10^3 μM,0.06 ± 0.01,30 ± 10
FlK (Streptantibioticus cattleyicolor; T42S),(6.1 ± 0.9) × 10^1 μM,0.01 ± 0.001,160 ± 30
